The results in this text go back to patent publication US20120322725A1.

For test [1], the target named is glucagon receptor, P47871. Put plainly: receptor binding, method not described.
For test [2], the target named is glucagon receptor, P47871. As to the kind of experiment: cell-based or functional assay.
Test [3] concerns the target glucagon receptor (UniProt P47871). Put plainly: cell-based or functional assay.
Test [4] shares this target. Put plainly: cell-based or functional assay. This is another data set of the same source.
Test [5] deals with GLP-1 receptor (UniProt P43220). Put plainly: cell-based or functional assay.
GLP-1 receptor, sequence (P43220 24-463 limits assumed): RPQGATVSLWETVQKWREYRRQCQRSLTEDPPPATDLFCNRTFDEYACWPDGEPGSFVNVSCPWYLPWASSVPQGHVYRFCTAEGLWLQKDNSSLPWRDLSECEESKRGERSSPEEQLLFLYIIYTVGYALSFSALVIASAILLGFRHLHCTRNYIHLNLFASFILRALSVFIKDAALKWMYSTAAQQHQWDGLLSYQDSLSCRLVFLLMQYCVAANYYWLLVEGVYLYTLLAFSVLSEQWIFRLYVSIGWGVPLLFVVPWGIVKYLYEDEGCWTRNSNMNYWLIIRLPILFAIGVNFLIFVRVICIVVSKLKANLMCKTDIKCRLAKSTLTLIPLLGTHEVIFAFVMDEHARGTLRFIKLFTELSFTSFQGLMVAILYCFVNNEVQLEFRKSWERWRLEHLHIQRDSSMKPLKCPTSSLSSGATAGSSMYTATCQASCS
The target is the same in test [6]. As to the kind of experiment: cell-based or functional assay. This is another data set of the same source.

Where two headings read alike, the source gives them in different places. PLA = 3-phenyllactic acid (2-hydroxy-3-phenylpropanoic acid)

glucagon receptor, sequence (P47871 26-477 limits assumed): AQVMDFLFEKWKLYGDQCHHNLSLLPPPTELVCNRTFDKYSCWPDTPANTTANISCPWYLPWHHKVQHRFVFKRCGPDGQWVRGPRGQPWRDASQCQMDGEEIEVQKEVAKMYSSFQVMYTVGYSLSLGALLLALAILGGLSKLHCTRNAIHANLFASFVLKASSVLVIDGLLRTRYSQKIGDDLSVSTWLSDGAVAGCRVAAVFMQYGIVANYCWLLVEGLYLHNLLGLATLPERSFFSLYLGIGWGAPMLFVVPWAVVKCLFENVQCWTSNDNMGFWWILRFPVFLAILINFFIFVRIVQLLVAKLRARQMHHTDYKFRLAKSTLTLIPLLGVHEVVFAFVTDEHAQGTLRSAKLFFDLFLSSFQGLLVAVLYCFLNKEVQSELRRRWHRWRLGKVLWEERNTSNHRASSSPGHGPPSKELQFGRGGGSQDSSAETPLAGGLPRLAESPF
glucagon receptor, P47871, sequence (P47871 26-477 limits assumed): as above

B1: [PLA6, E9]Glucagon (aa6-29 + CEX)-NH2 (peptide)
peptide: {PLA}-TSEYSKYLDSRRAQDFVQWLMNTGPSSGAPPPS-NH2
Turning to B1, the half-maximal inhibitory concentration (IC50) (in general, the concentration that gives 50% inhibition) in test [1] was found to be 40.3 nM. The same molecule came in with an IC50(nM) (cAMP, inhibit Glucagon) 0.1 nM or 0.2 nM in test [2] of 24.8 nM.

B2: Glucagon (6-CEX) analog E9, K12, E16 (peptide)
peptide: FTSEYSKYLDERRAQDFVQWLMNTGPSSGAPPPS
In the test with glucagon receptor [3], B2 showed a Glucagon IC50 of 762 nM. Also, in the test with glucagon receptor [4], the Glu IC50 worked out at 762 nM.

B3: Glucagon (6-CEX) analog D9, K12E16 (Lactam) (peptide)
peptide: FTSDYSKYLDERRAQDFVQWLMNTGPSSGAPPPS
modifications: lactam between K12 and E16 (glucagon numbering)
For the molecule B3, the GLP-1 (EC50) with GLP-1 receptor [5] was 18 nM; with GLP-1 receptor [6], 119 nM. In addition, the Glucagon IC50 in the test with glucagon receptor [3] worked out at 828 nM. The molecule also gave a Glu IC50 in the test with glucagon receptor [4] of 828 nM.

B4: Glucagon (6-CEX) analog E9, E16K20 (lactam) (peptide)
peptide: FTSEYSKYLDERRAKDFVQWLMNTGPSSGAPPPS
modifications: lactam between E16 and K20 (glucagon numbering)
Consider B4, for which the Glucagon IC50 with glucagon receptor [3] stood at 42 nM. For the same molecule, the GLP-1 (EC50) with GLP-1 receptor [6] came to 36 nM. The molecule also displayed a Glu IC50 in the test with glucagon receptor [4] of 42 nM.

B5: Glucagon (6-CEX) analog E9, K12E16 (lactam) (peptide)
peptide: FTSEYSKYLDERRAQDFVQWLMNTGPSSGAPPPS
modifications: lactam between K12 and E16 (glucagon numbering)
In the test with glucagon receptor [3], B5 returned a Glucagon IC50 of 2010 nM. The same molecule came in with a GLP-1 (EC50) with GLP-1 receptor [6] of 63 nM. This molecule also yielded a Glu IC50 in the test with glucagon receptor [4] of 2010 nM.

B6: [PLA6, E9, K12E16 (Lactam)] glucagon (6-CEX) analog (peptide)
peptide: TSEYSKYLDERRAQDFVQWLMNTGPSSGAPPPS
modifications: PLA at position 6, N-terminal to the letters given; lactam between K12 and E16 (glucagon numbering)
B6: in the test with glucagon receptor [3], the Glucagon IC50 is 72 nM. This molecule yielded a GLP-1 (EC50) with GLP-1 receptor [6] of 6 nM. Further, the Glu IC50 with glucagon receptor [4] is 72 nM.
